Test results reported in patent publication US20250154581A1 (BGI SHENZHEN, published 2025).

B1: Spycatcher003-MspA (other)
chain: MVTTLSGLSGEQGPSGDMTTEEDSATHIKFSKRDEDGRELAGATMELRDSSGKTISTWISDGHVKDFYLYPGKYTFVETAAPDGYEVATPIEFTVNEDGQVTVDGEATEGDAHTGGSGGSGGSGLDNELSLVDGQDRTLTVQQWDTFLNGVFPLDRNRLTREWFHSGRAKYIVAGPGADEFEGTLELGYQIGFPWSLGVGINFSYTTPNILIDDGDITAPPFGLNSVITPNLFPGVSISADLGNGPGIQEVATFSVDVSGAEGGVAVSNAHGTVTGAAGGVLLRPFARLIASTGDSVTTYGEPWNMN
notes: Subunit expressed as 6*His-Spycatcher003-MspA; also called 6*His-Spycatcher003-MspA
B2: Spytag003-DDA (enzyme)
chain: RGVPHIVMVDAYKRYKGGSGGSGGSGGSGGSGGSMTFDDLTEGQKNAFNIVMKAIKEKKHHVTINGPAGTGKTTLTKFIIEALISTGGTGIILAAPTHAAKKILSKLSGKEASTIHSILKINPVTYEENVLFEQKEVPDLAKCRVLICDEVSMYDRKLFKILLSTIPPWCTIIGIGDNKQIRPVEPGENTAYISPFFTHKDFYQCELTEVKRSNAPIIDVATDVRNGKWNYDKVVDGHGVRGFTGDTALRDFMVNYFSIVKSLDDLFENRVMAFTNKSVDKLNSIIRKKIFETDKDFIVGEIIVMQEPLFKTYKIDGKPVSEIIFNNGQLVRIIEAEYTSTFVKARGVPGEYLIRHWDLTVETYGDDEYYREKIKIISSDEELYKFNLFLAKTAETYKNWNKGGKAPWSDFWDAKSQFSKVKALPASTFHKAQGMSVDRAFIYTPCIHYADVELAQQLLYVGVTRGRYDVFYV
notes: Expressed from pET.28a(+)-6*His-Spytag003-DDA; also called 6*His-Spytag003-DDA; motor protein Spytag003-DDA

Assays:
[1] = biological target: T1, Strep-MspA (Mycolicibacterium smegmatis (strain …, UniProt A0QR29 28-211)); test: co-expression, Strep column co-purification, nickel column imidazole gradient and ion exchange separation
T1 construct: Subunit co-expressed with 6*His-Spycatcher003-MspA; Called simply MspA where the 1:7 complex is described
Description: In the present application, an MspA octamer which only contains one molecule of Spycatcher003 was obtained through the following method. First, the bacterial cells co-expressing 6*His-Spycatcher003-MspA and Strep-MspA obtained in the above step 2 (2) were disrupted by high pressure (Lysis Buffer: 150 mM NaCl, 20 mM Tris, 1% DDM) and purified by Strep column (Wash Buffer: 150 mM NaCl, 20 mM Tris, 0.05% Tween 20; Elution buffer: 150 mM NaCl, 20 mM Tris, 10 mM desthiobiotin) to obtain complexes with different ratios of the two proteins. […] From this, the Spycatcher003-labeled MspA octamer was obtained.

[2] = biological target: T2, Spycatcher003-MspA(MspA)7 (Mycolicibacterium smegmatis (strain …, UniProt A0QR29 28-211)); test: mixed 1:1.2 (octamer:Spytag003-DDA), 25 C 30 min, covalent Spytag003/Spycatcher003 coupling; Superose 6 Increase size exclusion chromatography
T2 construct: Octamer of one Spycatcher003-MspA and seven Strep-MspA subunits, co-expressed in E. coli; also called Spycatcher003-labeled MspA octamer; MspA octamer formed by Spycatcher003-MspA and MspA in a ratio of 1:7
Description: The Spycatcher003-labeled MspA octamer obtained in the above step 4 was mixed with the Spytag003-DDA obtained in the above step 3 at a ratio of 1:1.2, and reacted at 25° C. for 30 minutes, the Superose 6 increase is used for size exclusion chromatography (Purification Buffer: 150 mM NaCl, 20 mM Tris, 0.05% Tween20) to remove excess Spytag003-DDA protein, and the DDA-Spytag/Spycatcher-MspA complex was collected.

Binder | binding result [1] | binding result [2]
B1 | binds | –
B2 | – | binds
